These results are taken from patent publication US20240252670A1, “ANTIBODY DRUG CONJUGATE, PREPARATION METHOD THEREFOR AND APPLICATION THEREOF” (TSINGHUA UNIVERSITY, priority 2021, published 2024).

This experiment deals with PD-L1 on the surface of murine cells (MC38, B16, wild-type DC 2.4) (murine) (UniProt Q9EP73). In words: FACS on MC38 cells, FITC-labeled goat anti-human secondary antibody.
Sequence of PD-L1 on the surface of murine cells (MC38, B16, wild-type DC 2.4) (murine) (Q9EP73 19-290): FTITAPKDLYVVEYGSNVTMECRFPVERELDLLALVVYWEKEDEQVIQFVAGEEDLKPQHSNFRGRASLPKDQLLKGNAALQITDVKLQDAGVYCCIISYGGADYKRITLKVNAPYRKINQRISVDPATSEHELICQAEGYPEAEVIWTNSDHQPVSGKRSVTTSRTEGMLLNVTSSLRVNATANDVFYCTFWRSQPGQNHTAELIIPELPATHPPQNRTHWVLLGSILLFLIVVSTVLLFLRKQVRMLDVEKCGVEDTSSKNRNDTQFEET

isotype control IgG (antibody): the MFI was found to be 167 and the shift rate of the FITC positive signal relative to the NC group amounted to 1.7%.
